Experimental findings from patent publication US20140249076A1 (AstraZeneca / MedImmune, published 2014) are described below.

Sequences and labels used below:
B1: Cmpd 17 (peptide)
peptide: KCNTATCALQRLAQELHRLQTYPRTNVGSNTY-NH2
modifications: ends and bridges not checked
notes: Parent peptide of the fatty acid acylated compounds
B2: Cmpd 195 (Kε-(γ-Glu(Nα-C16-Chain))-Cmpd 17) (peptide)
peptide: K([γGlu-C16‑Chain])KCNTATCALQRLAQELHRLQTYPRTNVGSNTY-NH2
modifications: ends and bridges not checked
notes: The description is read as an extra acylated Lys placed before the N-terminus of Cmpd 17

Numbered stars: 1 amine (or outer) side, 2 acyl side, 3 side chain; on linkers, the order of the positions; unused ones are H or OH. Side chains are listed from the residue outwards. Ends that are not written are not given here. γGlu = O=C(O)[C@H](CCC(=O)[*:2])N[*:1]

One experiment addresses T1, amylin receptor (RNA membranes).
T1 construct: Membrane preparation
Put plainly: displacement of 125I-rat amylin from RNA membranes. The source says: Dried glass fiber plates were combined with scintillant and counted on a multi-well Perkin Elmer scintillation counter, as well known in the art.
Regarding B1, the IC50 is 0.028 nM.

K([γGlu-C16‑Chain])CNTATCALQRLAQELHRLQTYPRTNVGSNTY-NH2 (ends and bridges not checked, Lys 1 is already present in Cmpd 17) [Cmpd 192 ([K^1ε-(γ-Glu(Nα-C16-Chain))]-Cmpd 17)] yielded an IC50 of 0.518 nM.

B2 yielded an IC50 of 0.137 nM.

In another experiment the target is T2, CGRP receptor (SK-N-MC cell membranes) (UniProt Q16602 23-461; O60894 27-148).
T2 construct: whole, on cells
T2 sequence (Q16602 23-461, chain 1 of 2): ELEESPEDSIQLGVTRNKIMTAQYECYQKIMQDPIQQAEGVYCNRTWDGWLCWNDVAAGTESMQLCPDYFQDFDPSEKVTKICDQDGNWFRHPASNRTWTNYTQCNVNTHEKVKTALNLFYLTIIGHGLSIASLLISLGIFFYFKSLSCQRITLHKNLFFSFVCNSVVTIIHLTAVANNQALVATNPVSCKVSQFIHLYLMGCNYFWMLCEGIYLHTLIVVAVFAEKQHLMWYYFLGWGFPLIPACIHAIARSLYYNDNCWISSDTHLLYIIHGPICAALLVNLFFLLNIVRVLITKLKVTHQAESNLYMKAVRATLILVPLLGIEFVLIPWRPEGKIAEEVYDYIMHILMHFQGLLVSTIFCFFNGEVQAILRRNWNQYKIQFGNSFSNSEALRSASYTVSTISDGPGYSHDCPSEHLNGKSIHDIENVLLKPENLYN
T2 sequence (O60894 27-148, chain 2 of 2): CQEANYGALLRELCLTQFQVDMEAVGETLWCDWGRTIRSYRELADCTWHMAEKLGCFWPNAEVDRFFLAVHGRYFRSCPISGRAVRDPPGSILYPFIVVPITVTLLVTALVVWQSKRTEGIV
Nature of the experiment: displacement of 125I-human CGRP from SK-N-MC cell membranes. The source says:
Dried glass fiber plates were combined with scintillant and counted on a multiwell Perkin Elmer scintillation counter.
B1 registered an IC50 of 1.26 nM.

The molecule K([γGlu-C16‑Chain])CNTATCALQRLAQELHRLQTYPRTNVGSNTY-NH2 (ends and bridges not checked, Lys 1 is already present in Cmpd 17) [Cmpd 192 ([K^1ε-(γ-Glu(Nα-C16-Chain))]-Cmpd 17)] had an IC50 of 4.45 nM.

The molecule B2 returned an IC50 of 0.603 nM.
